“And” between values parts separate entries of the source, which are not always exact repeats. Identical values can stand only once.
Tested on: Bacillus subtilis DB104 (SP-AmyQ fusion secretion)
Assay: AmyQ secretion efficiency, weighted average sort bin (1 = best secretion, 10 = worst) (bin number (weighted average, 1-10)); higher = lower secretion efficiency
How it was run: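 Designed signal peptides were fused to mature AmyQ and expressed from the amyE locus in B. subtilis DB104, and this library was loaded at about 0.3 cells per ~65 nL alginate bead together with fluorescein-starch. After about 13 h of growth at room temperature and nile red staining, occupied beads were split into 10 equally populated bins by green/red fluorescence ratio using large-particle flow cytometry. Amplicons from every bin were Illumina-sequenced. The secretion score is the average bin number weighted by read frequency and normalised to beads per bin, excluding low-abundance sequences.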

Sequence	AmyQ secretion efficiency
MYSKGLLAGALTATVLFGTCAVDVPGIISPKTAEAASQ	2.38
MKNMSCKLVVSVTLFFSFLRKKKKKAHAQNS	6.96
MNKKYFVLIVCIIFTSALFPTDKKVTAAQG	1.1
MKKIVSILFMFGLVMKKKQFQPSTVFAADK	7.82
MKKWMITIAMSYTSTKRYFVFISPLKSHKT	7.55
MKNMSCKLVVSVTLFFSFLTIGPLAHAKRK	2.49
MKKSMLAAAVLLSLGLVFGFSYGAGHVAEAKTK	2.84
MPYLKRVRRRRVTGLFMSLFAVTATASAQTG	2.37
MRFTKVVGFLSVLGLAAVFPLTAQAAPK	1.91
MRKSLITLGLASVIGTSSFLIPFTSKTLSAETL	4.7
MTKKAWFLPLVCVLLIEEEEEEAASASAQTT	6.12
MKLAKRVSALTPSTTLAIVIFAKAKEL	8.15
MKKLILAFILSAAAAVGLFTFGGVQQASAKEL	4
MKRIRIPMTLALGAALTIAPLSFASAEED	3.29
MKRQKQKASLVLFAVVFVFAVKGAPAKAETH	2.05
MKNMSCKLVVSVTLFFSFLTIGPLAHLQNS	6
MKKKQVMLALTAAAGLGLTAHSAPAAKAAPL	2.01
MKKQIITATTAVVLGSTLFAGAASYQSI	6.33
MRKKRVITCVMAASLTLGSLLPAGYCTAKED	3.9
MNLRKNSFFILLSSALSLGMLVSAAPVLATSS	1.98
MRIFKKAVFVIMISFLIATVNVNTAHIAID	6.89
MKLKKRVSMFKKALTMCGGLFVTPAKAVKT	7.21

Sequence	AmyQ secretion efficiency
MPYLKRVLLLLVTGLFMSLFAVTATQSAQTG	3.84
MMIKQCRKCKRLLVFGTTAAHAEET	6.79
MKKKQVMLALTAAAGLGLTALHSAPAAKHAPL	4.9
MMRTWNVCLTALLSVLLVAGSVPFHAEAKKP	3.23
MKRLLSTLLIGIMLLPKAPSAFAKQD	2.61
MKSKWMSGLLLVAVGTQVMVHAGET	5.76
MKRIRIPMTLALGAALTIAPLSFASAASN	1.02
MNFKKTVVSALSISALALEEEGVASAHEI	7.3
MKRTSTAYLLLGILCSAAVFLIGAPSRALGAEV	2.85
MKKVLMAFIICLSLILSVLAAPPSGAKSESV	3.92
MFNRLFRVCFLAALIMAFTLPNSGYAQKP	2.99
MNFKKTVVSALSISALALSVSGVASSHEI	5.89
MKKRLIGFLVLVPALIMSGITLIEANKK	5.85 and 6.63 and 6.16
MKKRITYSLLALLAVVAFAFFISSKAKAAEA	5.19
MKIRKIRRRKALSFGMLISAVPALAAGT	5.54
MKKQIITATTAVVLGSTLFAKKRASAQSI	7.26
MKLRKVLTGSVLSLGLLVSASPAFATSR	1.56
MKRFILVLSFLSIIVAYPIQSNASPM	5.96
MKKAFLVFLSVVLVTTVFLRKKRRKVAQAKQL	6.27
MKRFSTAYLLLGILCSAAVFLIGAPSRALGAPK	1.81
MKRIRIPMTYRYQSALTIAPLSFASAEEN	7.35
MNKFLKSNFRYYTTGALGISLLASSNFIKASND	7

Sequence	AmyQ secretion efficiency
MAIIIAIIAAVIVIAALITFEEDERNASPG	5.02
MKWMCSICCAAVLLAGTVFLLGAAQAEAV	3.59
MRMLWRSSSQCGLALTLAPCAQAAEP	8.18
MHLIRAAGAVCLAVVLIAGCRFNEDQHQFEGENT	5.53
MRKYTVIASILLSFLSVLSGGHHESKARRR	7.19
MAIIIAIIAAVIVIAALITFNVGGSPVVSTSTARNASPG	3.35
MKKMLGKSGKQTTTGVFFAVVVKDVFAAGL	6.37
MFNRLFRVCFLAALIMAFSSSSLFISLVTLPNSVYAQKP	4.04
MRKNRILALFVLSLGLLSFMVTPTSAASK	2
MKVKRRKRKLLLFAFEPSASGKKL	6.97
MKVLLSALLLLLFAEEDSASGKKL	6.1
MKKRITYSGSQLLAVVAFAFTDSSKAKAAEA	8.92
MKQGKFSVFLILLLMLTLVVAPKEKEEAASS	7.98
MPYLKRVLLLLVTGLFMSLFAVTATFSAQTG	4.6
MTKLKMLSMLTVMIASLFIFSSQALMVQY	5.71
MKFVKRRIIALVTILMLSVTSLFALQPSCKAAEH	2.68
MKRKLLSSLAISALSLGLLVSAPTATFAAES	3.04
MFNRLFRVCFLAALIMAFTLPNSCYAQKP	2.79
MTKVMLATALFLGLTPAGANAADL	5.8
MKVPKTMLKKRKRKLLLSLTATSVSAHYV	5.33
